Measured values published in PMC3689916, “Vaspin inhibits kallikrein 7 by serpin mechanism” (Cellular and Molecular Life Sciences: CMLS, 2013).

Target: T1, recombinant human vaspin (visceral adipose tissue-derived serpin; serpinA12), 10×His fusion protein (human, UniProt Q8IW75 22-414)
T1 construct: the crystal structure model covers residues 37-366 and 378-414 (chain A); The natural signal peptide is probably absent from the construct; also called native human vaspin; 10×His–vaspin
T1 sequence: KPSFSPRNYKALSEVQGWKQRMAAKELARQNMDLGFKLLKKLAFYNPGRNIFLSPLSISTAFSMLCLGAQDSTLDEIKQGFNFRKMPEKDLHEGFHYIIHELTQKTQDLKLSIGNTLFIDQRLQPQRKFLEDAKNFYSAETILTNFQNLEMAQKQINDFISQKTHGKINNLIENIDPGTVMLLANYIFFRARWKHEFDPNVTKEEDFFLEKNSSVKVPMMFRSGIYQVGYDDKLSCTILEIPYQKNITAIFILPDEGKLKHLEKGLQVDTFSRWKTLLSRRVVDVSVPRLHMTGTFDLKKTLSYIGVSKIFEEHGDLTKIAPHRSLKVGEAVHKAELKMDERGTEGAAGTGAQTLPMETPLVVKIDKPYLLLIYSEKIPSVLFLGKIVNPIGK
Assay: protease activity assay, association rate under pseudo-first-order conditions (residual activity, fluorogenic peptide substrate); tenfold molar excess of vaspin over hK7; remaining hK7 activity against time; k ass = k obs/[I] from a linear fit of ln activity against time
Conditions: both partners purified

kon: 7300 M⁻¹ s⁻¹
B1: recombinant human kallikrein 7 (hK7) (enzyme, UniProt P49862 23-253, looked up)
chain: IIDGAPCARGSHPWQVALLSGNQLHCGGVLVNERWVLTAAHCKMNEYTVHLGSDTLGDRRAQRIKASKSFRHPGYSTQTHVNDLMLVKLNSQARLSSMVKKVRLPSRCEPPGTTCTVSGWGTTTSPDVTFPSDLMCVDVKLISPQDCTKVYKDLLENSMLCAGIPDSKKNACNGDSGGPLVCRGTLQGLVSWGTFPCGQPNDPGVYTQVCKFTKWINDTMKKHR
notes: source: bought: R&D Systems
